Source: doi:10.1101/2021.04.26.440876, “Fluoxetine targets an allosteric site in the enterovirus 2C AAA+ ATPase and stabilizes the hexameric complex” (bioRxiv, 2021)

Target: the molecule itself
Test: SEC; size exclusion chromatography gel filtration profile of the MBP-tagged full-length preparation (Figure S9)

B1: MBP-tagged full-length CV-B3 2C (natural protein)
chain: NNSWLKKFTEMTNACKGMEWIAVKIQKFIEWLKVKILPEVREKHEFLNRLKQLPLLESQIATIEQSAPSQSDQEQLFSNVQYFAHYCRKYAPLYAAEAKRVFSLEKKMSNYIQFKSKCRIEPVCLLLHGSPGAGKSVATNLIGRSLAEKLNSSVYSLPPDPDHFDGYKQQAVVIMDDLCQNPDGKDVSLFCQMVSSVDFVPPMAALEEKGILFTSPFVLASTNAGSINAPTVSDSRALARRFHFDMNIEVISMYSQNGKINMPMSVKTCDDECCPVNFKKCCPLVCGKAIQFIDRRTQVRYSLDMLVTEMFREYNHRHSVGTTLEALFQ
notes: coxsackievirus B3 non-structural protein 2C (cut product of the polyprotein), full length (329 residues by the printed limits of the other constructs); source: purified
- binding result: binds
